Each binder was assayed against T1, HLA-A*01:01_… (HLA-PEPTIDE target G2), recombinant biotinylated complex (human, enzymatically biotinylated (BirA)) (assay: phage panning, scFv ELISA;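 note: scFv binders from three to four bead panning rounds, tested as PPEs by ELISA on streptavidin plates carrying peptide-HLA complex (2 µg/ml), detected via anti-V5 and HRP anti-mouse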).
T1 construct: also called G2-pHLA
Description: Phage library screening was carried out according to the overall screening design described above. Three to four rounds of bead-based panning were performed to identify scFv binders to each peptide-HLA complex. For each round of panning, an aliquot of starting phage was set aside for input titering and the remaining phage was depleted three times against Dynabead M-280 streptavidin beads (Life Technologies) followed by a depletion against Streptavidin beads pre-bound with 100 μmoles of pooled negative peptide-HLA complexes. For the first round of panning, 100 μmoles of peptide-HLA complex bound to streptavidin beads was incubated with depleted phage for 2 hours at room temperature with rotation. Three five-minute washes with 0.5% BSA in 1×PBST (PBS+0.05% Tween-20) followed by three five-minute washes with 0.5% BSA in 1×PBS were utilized to remove any unbound phage to the peptide-HLA complex bound beads. To elute the bound phage from the washed beads, 1 ml 0.1M TEA was added and incubated for 10 minutes at room temperature with rotation. The eluted phage was collected from the beads and neutralized with 0.5 ml 1M Tris-HCl pH 7.5. The neutralized phage was then used to infect log growth TG-1 cells (OD₆₀₀=0.5) and after an hour of infection at 37° C., cells were plated onto 2YT media with 100 μg/ml carbenicillin and 2% glucose (2YTCG) agar plates for output titer and bacterial growth for subsequent panning rounds.
96-well and/or 384-well streptavidin coated plates (Pierce) were coated with 2 μg/ml peptide-HLA complex in HLA buffer and incubated overnight at 4° C. Plates were washed three times between each step with PBST (PBS+0.05%). The antigen coated plates were blocked with 3% BSA in PBS (blocking buffer) for 1 hour at room temperature. After washing, scFv PPEs were added to the plates and incubated at room temperature for 1 hour. Following washing, mouse anti-v5 antibody (Invitrogen) in blocking buffer was added to detect scFv and incubated at room temperature for 1 hour. After washing, HRP-goat anti-mouse antibody (Jackson ImmunoResearch) was added and incubated at room temperature for 1 hour.

binding result	Binder
binds	G2(1G07) scFv (scFv, V domains shown) VH: QVQLVQSGAEVKKPGASVKVSCKASGGTFSNYAINWVRQAPGQGLEWMGWISPYSGGTNYAQKFQGRVTMTRDTSTSTVYMELSSLRSEDTAVYYCARDSGSYFDYWGQGTLVTVSS VL: DIQMTQSPSSLSASVGDRVTITCQASQDISNYLNWYQQKPGKAPKLLIYAASTLQSGVPSRFSGSGSGTDFTLTISSLQPEDFATYYCQQTYAIPLTFGGGTKVEIK
binds	G2(1A10) scFv (scFv, V domains shown) VH: QVQLVQSGAEVKKPGASVKVSCKASGGTFSSYAFSWVRQAPGQGLEWMGWINPDTGYTRYAQKFQGRVTMTRDTSTSTVYMELSSLRSEDTAVYYCARGDYTGNWYFDLWGRGTLVTVSS VL: DIQMTQSPSSLSASVGDRVTITCRASRDIGRAVGWYQQKPGKAPKLLIYAASSLQSGVPSRFSGSGSGTDFTLTISSLQPEDFATYYCQQLDSYPFTFGPGTKVDIK
binds	G2(2E07) scFv (scFv, V domains shown) VH: QVQLVQSGAEVKKPGASVKVSCKASGGTFSSATISWVRQAPGQGLEWMGWIYPNSGGTVYAQKFQGRVTMTRDTSTSTVYMELSSLRSEDTAVYYCAATEWLGVWGQGTTVTVSS VL: DIQMTQSPSSLSASVGDRVTITCRASQSISTWLAWYQQKPGKAPKLLIYAASSLRSGVPSRFSGSGSGTDFTLTISSLQPEDFATYYCQQSYNTPYTFGQGTKLEIK
binds	G2(1H10) scFv (scFv, V domains shown) VH: QVQLVQSGAEVKKPGASVKVSCKASGGTFSSYAISWVRQAPGQGLEWMGWINPNNGGTNYAQKFQGRVTMTRDTSTSTVYMELSSLRSEDTAVYYCARDSGVGMDVWGQGTTVTVSS VL: DIQMTQSPSSLSASVGDRVTITCRASQSISKWLAWYQQKPGKAPKLLIYAASSLQSGVPSRFSGSGSGTDFTLTISSLQPEDFATYYCQQSYSAPYTFGQGTKVEIK
binds	G2(2C06) scFv (scFv, V domains shown) VH: QVQLVQSGAEVKKPGASVKVSCKSSGYSFDSYVVNWVRQAPGQGLEWMGWINPNSGGTNYAQKFQGRVTMTRDTSTSTVYMELSSLRSEDTAVYYCARDWVLDYWGQGTLVTVSS VL: DIQMTQSPSSLSASVGDRVTITCRASQTISSWLAWYQQKPGKAPKLLIYAASSLQSGVPSRFSGSGSGTDFTLTISSLQPEDFATYYCQQSYSTPFTFGPGTKVDIK
binds	G2(2H11) scFv (scFv, V domains shown) VH: QVQLVQSGAEVKKPGASVKVSCKASGYTFSDYYVHWVRQAPGQGLEWMGWINPNSGGTNYAQKFQGRVTMTRDTSTSTVYMELSSLRSEDTAVYYCARGEWFDPWGQGTLVTVSS VL: DIQMTQSPSSLSASVGDRVTITCRASQSISSWLAWYQQKPGKAPKLLIYAASTLQSGVPSRFSGSGSGTDFTLTISSLQPEDFATYYCQQSYSTPFTFGPGTKVDIK
binds	G2(1D07) scFv (scFv, V domains shown) VH: QVQLVQSGAEVKKPGASVKVSCKASGYTFTSYGISWVRQAPGQGLEWMGWISAYNGYTNYAQNLQGRVTMTRDTSTSTVYMELSSLRSEDTAVYYCARDQFYGGNSGGHDYWGQGTLVTVSS VL: DIQMTQSPSSLSASVGDRVTITCQASQDISNYLNWYQQKPGKAPKLLIYAASSLQSGVPSRFSGSGSGTDFTLTISSLQPEDFATYYCQQSYSTPLTFGGGTKLEIK
binds	G2(1C09) scFv (scFv, V domains shown) VH: QVQLVQSGAEVKKPGASVKVSCKASGYTFSSYNMHWVRQAPGQGLEWMGWINGNTGGTNYAQKFQGRVTMTRDTSTSTVYMELSSLRSEDTAVYYCARGVNVDDFDYWGQGTLVTVSS VL: DIQMTQSPSSLSASVGDRVTITCRASQTISNYLNWYQQKPGKAPKLLIYAASNLQSGVPSRFSGSGSGTDFTLTISSLQPEDFATYYCQQSYSTPQTFGQGTKVEIK
binds	G2(1G12) scFv (scFv, V domains shown) VH: QVQLVQSGAEVKKPGASVKVSCKASGYTFTSYLMHWVRQAPGQGLEWMGWISPNSGGTNYAQKFQGRVTMTRDTSTSTVYMELSSLRSEDTAVYYCARGDWFDPWGQGTLVTVSS VL: DIQMTQSPSSLSASVGDRVTITCQASQDISNYLNWYQQKPGKAPKLLIYGASRLQSGVPSRFSGSGSGTDFTLTISSLQPEDFATYYCQQSYSTPYTFGQGTKLEIK
binds	G2(2E03) scFv (scFv, V domains shown) VH: EVQLLQSGAEVKKPGSSVKVSCKASGGTFSSYAISWVRQAPGQGLEWMGWINPNSGGTISAPNFQGRVTMTRDTSTSTVYMELSSLRSEDTAVYYCARANWLDYWGQGTLVTVSS VL: DIQMTQSPSSLSASVGDRVTITCRASQSISRWLAWYQQKPGKAPKLLIYAASTVQSGVPSRFSGSGSGTDFTLTISSLQPEDFATYYCQQSYSTPYTFGQGTKLEIK
binds	G2(1E05) scFv (scFv, V domains shown) VH: QVQLVQSGAEVKKPGASVKVSCKASGYTFTDYNMHWVRQAPGQGLEWMGWMNPNSGGTNYAQKFQGRVTMTRDTSTSTVYMELSSLRSEDTAVYYCAREEDYWGQGTLVTVSS VL: DIQMTQSPSSLSASVGDRVTITCRASQSIGRWLAWYQQKPGKAPKLLIYAASSLQSGVPSRFSGSGSGTDFTLTISSLQPEDFATYYCQQSYSTPYSFGQGTKVEIK
binds	G2(2B08) scFv (scFv, V domains shown) VH: QVQLVQSGAEVKKPGASVKVSCKASGYTLTSHLIHWVRQAPGQGLEWMGWINPNSGGTNYAQKFQGRVTMTRDTSTSTVYMELSSLRSEDTAVYYCARERRSGMDVWGQGTTVTVSS VL: DIQMTQSPSSLSASVGDRVTITCRASQGISNYLAWYQQKPGKAPKLLIYAASRLESGVPSRFSGSGSGTDFTLTISSLQPEDFATYYCQQSYSIPLTFGGGTKVEIK
binds	G2(2H10) scFv (scFv, V domains shown) VH: QVQLVQSGAEVKKPGASVKVSCKASGYSFTRYNMHWVRQAPGQGLEWMGWINPNSGGTNYAQKFQGRVTMTRDTSTSTVYMELSSLRSEDTAVYYCARDGYSGLDVWGKGTTVTVSS VL: DIQMTQSPSSLSASVGDRVTITCRASQSISSWLAWYQQKPGKAPKLLIYGASSLQSGVPSRFSGSGSGTDFTLTISSLQPEDFATYYCQQSYSVPYSFGQGTKLEIK
binds	G2(1D03) scFv (scFv, V domains shown) VH: QVQLVQSGAEVKKPGASVKVSCKASGYTFTRYTINWVRQAPGQGLEWMGWINPNSGGANYAQKFQGRVTMTRDTSTSTVYMELSSLRSEDTAVYYCARGDWFDPWGQGTLVTVSS VL: DIQMTQSPSSLSASVGDRVTITCRASQSISTWLAWYQQKPGKAPKLLIYAASTLQSGVPSRFSGSGSGTDFTLTISSLQPEDFATYYCQQSYSTPYTFAQGTKLEIK
binds	G2(1F12) scFv (scFv, V domains shown) VH: QVQLVQSGAEVKKPGASVKVSCKASGYTFTDYYMHWVRQAPGQGLEWMGWIYPNTGGTNYAQKFQGRVTMTRDTSTSTVYMELSSLRSEDTAVYYCARDYGGYVDYWGQGTLVTVSS VL: DIQMTQSPSSLSASVGDRVTITCQASQDIGSWLAWYQQKPGKAPKLLIYATSSLQSGVPSRFSGSGSGTDFTLTISSLQPEDFATYYCQQSYSTPYTFGQGTKLEIK
binds	G2(2C11) scFv (scFv, V domains shown) VH: QVQLVQSGAEVKKPGASVKVSCKASGGTFNNYAFSWVRQAPGQGLEWMGWINPNSGGTNYAQKFQGRVTMTRDTSTSTVYMELSSLRSEDTAVYYCARDGVAVASDYWGQGTLVTVSS VL: DIQMTQSPSSLSASVGDRVTITCRASQGISNYLAWYQQKPGKAPKLLIYAASTLQSGVPSRFSGSGSGTDFTLTISSLQPEDFATYYCQQSYSVPYSFGQGTKLEIK
binds	G2(1C02) scFv (scFv, V domains shown) VH: QVQLVQSGAEVKKPGASVKVSCKASGYTFTSYGISWVRQAPGQGLEWMGWINPNSGGTNYAQKFQGRVTMTRDTSTSTVYMELSSLRSEDTAVYYCARGWELGYWGQGTLVTVSS VL: DIQMTQSPSSLSASVGDRVTITCRASQSISNWLAWYQQKPGKAPKLLIYAASSLQSGVPSRFSGSGSGTDFTLTISSLQPEDFATYYCQQSYSAPYTFGPGTKVDIK
binds	G2(1B10) scFv (scFv, V domains shown) VH: EVQLLESGAEVKKPGASVKVSCKASGYTFTSYGISWVRQAPGQGLEWMGWINPYSGGTNYAQKLQGRVTMTRDTSTSTVYMELSSLRSEDTAVYYCARANWLDYWGQGTLVTVSS VL: DIQMTQSPSSLSASVGDRVTITCRASQSISSWLAWYQQKPGKAPKLLIYAASTLQSGVPSRFSGSGSGTDFTLTISSLQPEDFATYYCQQSYSSPYTFGPGTKVDIK
binds	G2(1G01) scFv (scFv, V domains shown) VH: QVQLVQSGAEVKKPGASVKVSCKASGYTFTSYGISWVRQAPGQGLEWMGWMNPNSGGTNYAQKFQGRVTMTRDTSTSTVYMELSSLRSEDTAVYYCARGEWLDYWGQGTLVTVSS VL: DIQMTQSPSSLSASVGDRVTITCRASQTISSWLAWYQQKPGKAPKLLIYAASSLQSGVPSRFSGSGSGTDFTLTISSLQPEDFATYYCQQSYGVPYTFGQGTKVEIK
binds	G2(1C03) scFv (scFv, V domains shown) VH: QVQLVQSGAEVKKPGASVKVSCKASGYTFTTYYMHWVRQAPGQGLEWMGWINPNSGGTNYAQKFQGRVTMTRDTSTSTVYMELSSLRSEDTAVYYCARSDWFDPWGQGTLVTVSS VL: DIQMTQSPSSLSASVGDRVTITCRASQSVSNWLAWYQQKPGKAPKLLIYAASSLQSGVPSRFSGSGSGTDFTLTISSLQPEDFATYYCQQSYSTPTFGQGTKLEIK
binds	G2(2A10) scFv (scFv, V domains shown) VH: EVQLLESGAEVKKPGASVKVSCKASGYSFTDYIVHWVRQAPGQGLEWMGWINPYSGGTKYAQKFQGRVTMTRDTSTSTVYMELSSLRSEDTAVYYCARVLQEGMDVWGQGTLVTVSS VL: DIQMTQSPSSLSASVGDRVTITCRASQSISSYLNWYQQKPGKAPKLLIYGVSSLQSGVPSRFSGSGSGTDFTLTISSLQPEDFATYYCQQSYSNPTFGQGTKVEIK
binds	G2(1G03) scFv (scFv, V domains shown) VH: EVQLLESGAEVKKPGASVKVSCKASGYTFTSYAMNWVRQAPGQGLEWMGWMNPNSGGTKYAQKFQGRVTMTRDTSTSTVYMELSSLRSEDTAVYYCAREGPAALDVWGQGTLVTVSS VL: DIQMTQSPSSLSASVGDRVTITCRASQGISRWLAWYQQKPGKAPKLLIYAASTLQPGVPSRFSGSGSGTDFTLTISSLQPEDFATYYCQQSYIAPFTFGPGTKVDIK
